One block for each substance: values may come before it.
Legend:
[1] = target: ^MsmClpP1 R168A, purified (Mycobacterium smegmatis); experiment: AUC; oligomeric state of each purified protein alone, in the absence of z-LL (Fig. S4)
[2] = target: ^MsmClpP1 Y110A (Mycobacterium smegmatis); experiment: native gel or EMSA; 5 µg of purified protein on 4-16% Native-PAGE Novex Bis-Tris gels, stained with Coomassie Brilliant Blue R250
[3] = target: ^MsmClpP1, wild type, purified (Mycobacterium smegmatis); experiment: crystal structure; ^MsmClpP1 crystallised by vapor diffusion at 20 °C from sodium malonate pH 6.6-6.8; one heptamer in the asymmetric unit, tetradecamer from crystallographically related heptamers; 2.0 Å
[4] = target: ^MsmClpP1, wild type, purified (Mycobacterium smegmatis); experiment: native gel or EMSA; 5 µg of purified protein on 4-16% Native-PAGE Novex Bis-Tris gels, stained with Coomassie Brilliant Blue R250
[5] = target: ^MsmClpP1, wild type, purified (Mycobacterium smegmatis); experiment: AUC; oligomeric state of each purified protein alone, in the absence of z-LL (Fig. S4)
[6] = target: ^MsmClpP2 R189A, purified (Mycobacterium smegmatis); experiment: as above
[7] = target: ^MsmClpP2, wild type, purified (Mycobacterium smegmatis); experiment: as above

stoichiometry N [1]: 7
Substance: ^MsmClpP1 R168A, purified (enzyme)

stoichiometry N [2]: 14
Substance: ^MsmClpP1 Y110A (enzyme)

stoichiometry N [3]: 14
stoichiometry N [4]: 14
stoichiometry N [5]: 7
Substance: ^MsmClpP1, wild type, purified (enzyme)

stoichiometry N [6]: 7
Substance: ^MsmClpP2 R189A, purified (enzyme)

stoichiometry N [7]: 7
Substance: ^MsmClpP2, wild type, purified (enzyme)
